The text below walks through data of US7264801.

For assay [1], the target named is EG-VEGF receptor (high affinity binding sites) on bovine adrenal cortical capillary endothelial cells (ACE) (bovine). Kind of assay: 125I-EG-VEGF competitive binding on ACE cells, Scatchard analysis.
For assay [2] the target is unchanged. Kind of assay: displacement of 125I-EG-VEGF by unlabeled tagged EG-VEGF on ACE cells. (Displacement assays read how much labelled ligand stays bound in the presence of the test substance.)
Assay [3] concerns the target EG-VEGF binding component on human umbilical vein endothelial cells (HUVEC) (human). Kind of assay: displacement of 125I-EG-VEGF by unlabeled tagged EG-VEGF on HUVEC and other non-responsive cells.

B1: EG-VEGF-his (human EG-VEGF with C-terminal … tag, baculovirus-produced) (ligand)
chain: AVITGACERDVQCGAGTCCAISLWLRGLRMCTPLGREGEECHPGSHKVPFFRKRKHHTCPCLPNLLCSRFPDGRYRCSMDLKNINFGHHHHHHHH
modifications: 125I-iodinated when used as tracer in the cell binding assays (Iodobead or lactoperoxidase method); the unlabeled form was the competitor and the ELISA antigen
Turning to B1, the equilibrium dissociation constant (Kd) (commonly a measure of binding affinity in units of concentration) in assay [1] fell in the range of 0.9 to 1 nM. Also, in assay [2], the ED50 amounted to 10 nM. For the same molecule, the competitor concentration that displaces the binding in assay [3] was > 270 nM.
